According to US20240400715A1 (VIBRANT PHARMA, published 2024):
Positions count from the first letter of the chain named.

B1: 205 (CEA-Fab-Knob-+Hole) (bispecific antibody, human IgG4 S228P, kappa, F234A L235A)
heavy: EVQLVESGGGFVQAGESLTLSCTSSTLTFTPYRMAWYRQAPGKQRDLVADISSGDGRTTNYADFAKGRFTISRDNIKNTVFLRMTNLKPEDTAVYYCNTFVSFVGIARSWGQGTQVTVSSGGGGSGGGGSEVKLLESGGGLVQPKGSLKLSCAASGFTFNTYAMNWVRQAPGKGLEWVARIRSKYNNYATYYADSVKDRFTISRDDSQSILYLQMNNLKTEDTAMYYCVRHGNFGNSYVSWFAYWGQGTLVTVSSASTKGPSVFPLAPCSRSTSESTAALGCLVKDYFPEPVTVSWNSGALTSGVHTFPAVLQSSGLYSLSSVVTVPSSSLGTKTYTCNVDHKPSNTKVDKRVESKYGPPCPPCPAPEAAGGPSVFLFPPKPKDTLMISRTPEVTCVVVDVSQEDPEVQFNWYVDGVEVHNAKTKPREEQFNSTYRVVSVLTVLHQDWLNGKEYKCKVSNKGLPSSIEKTISKAKGQPREPQVYTLPPCQEEMTKNQVSLWCLVKGFYPSDIAVEWESNGQPENNYKTTPPVLDSDGSFFLYSRLTVDKSRWQEGNVFSCSVMHEALHNHYTQKSLSLSL
chain: ESKYGPPCPPCPAPEAAGGPSVFLFPPKPKDTLMISRTPEVTCVVVDVSQEDPEVQFNWYVDGVEVHNAKTKPREEQFNSTYRVVSVLTVLHQDWLNGKEYKCKVSNKGLPSSIEKTISKAKGQPREPQVCTLPPSQEEMTKNQVSLSCAVKGFYPSDIAVEWESNGQPENNYKTTPPVLDSDGSFFLVSRLTVDKSRWQEGNVFSCSVMHEALHNRFTQKSLSLSL
light: QAVVTQESALTTSPGETVTLTCRSSTGAVTTSNYANWVQEKPDHLFTGLIGGTNKRAPGVPARFSGSLIGDKAALTITGAQTEDEAIYFCALWYSNLWVFGGGTKVEIKRTVAAPSVFIFPPSDEQLKSGTASVVCLLNNFYPREAKVQWKVDNALQSGNSQESVTEQDSKDSTYSLSSTLTLSKADYEKHKVYACEVTHQGLSSPVTKSFNRGEC
notes: VHH fused before VH of the heavy chain
B2: 206 (Knob+CEA-Fab-Hole) (bispecific antibody, human IgG4 S228P, kappa, F234A L235A)
chain: B1 chain with C131Y, S136C, S148W, A150L, V189Y, R217H, F218Y
heavy: B1 heavy with Y484C, C489S, W501S, L503A, Y542V, H570R, Y571F
light: B1 light
notes: as for B1
B3: 208 (Fab (Heavy)-Knob+Fab (Light)-Hole-CEA) (bispecific antibody, human IgG4 S228P, kappa, F234A L235A)
heavy: EVKLLESGGGLVQPKGSLKLSCAASGFTFNTYAMNWVRQAPGKGLEWVARIRSKYNNYATYYADSVKDRFTISRDDSQSILYLQMNNLKTEDTAMYYCVRHGNFGNSYVSWFAYWGQGTLVTVSSASTKGPSVFPLAPCSRSTSESTAALGCLVKDYFPEPVTVSWNSGALTSGVHTFPAVLQSSGLYSLSSVVTVPSSSLGTKTYTCNVDHKPSNTKVDKRVESKYGPPCPPCPAPEAAGGPSVFLFPPKPKDTLMISRTPEVTCVVVDVSQEDPEVQFNWYVDGVEVHNAKTKPREEQFNSTYRVVSVLTVLHQDWLNGKEYKCKVSNKGLPSSIEKTISKAKGQPREPQVYTLPPCQEEMTKNQVSLWCLVKGFYPSDIAVEWESNGQPENNYKTTPPVLDSDGSFFLYSRLTVDKSRWQEGNVFSCSVMHEALHNHYTQKSLSLSL
light: QAVVTQESALTTSPGETVTLTCRSSTGAVTTSNYANWVQEKPDHLFTGLIGGTNKRAPGVPARFSGSLIGDKAALTITGAQTEDEAIYFCALWYSNLWVFGGGTKVEIKRTVAAPSVFIFPPSDEQLKSGTASVVCLLNNFYPREAKVQWKVDNALQSGNSQESVTEQDSKDSTYSLSSTLTLSKADYEKHKVYACEVTHQGLSSPVTKSFNRGECESKYGPPCPPCPAPEAAGGPSVFLFPPKPKDTLMISRTPEVTCVVVDVSQEDPEVQFNWYVDGVEVHNAKTKPREEQFNSTYRVVSVLTVLHQDWLNGKEYKCKVSNKGLPSSIEKTISKAKGQPREPQVCTLPPSQEEMTKNQVSLSCAVKGFYPSDIAVEWESNGQPENNYKTTPPVLDSDGSFFLVSRLTVDKSRWQEGNVFSCSVMHEALHNRFTQKSLSLSLGGGGSGGGGSEVQLVESGGGFVQAGESLTLSCTSSTLTFTPYRMAWYRQAPGKQRDLVADISSGDGRTTNYADFAKGRFTISRDNIKNTVFLRMTNLKPEDTAVYYCNTFVSFVGIARSWGQGTQVTVSS
notes: two-chain format: VL-CL fused to hole Fc and VHH
B4: 209 (Fab (Light)-Knob-CEA+Fab (Heavy)-Hole) (bispecific antibody, human IgG4 S228P, kappa, F234A L235A)
light: B3 light with C347Y, S352C, S364W, A366L, V405Y, R433H, F434Y
heavy: B3 heavy with Y354C, C359S, W371S, L373A, Y412V, H440R, Y441F
notes: two-chain format: VL-CL fused to knob Fc and VHH
B5: 210 (Fab (Light)-Knob+Fab (Heavy)-Hole-CEA) (bispecific antibody, human IgG4 S228P, kappa, F234A L235A)
light: QAVVTQESALTTSPGETVTLTCRSSTGAVTTSNYANWVQEKPDHLFTGLIGGTNKRAPGVPARFSGSLIGDKAALTITGAQTEDEAIYFCALWYSNLWVFGGGTKVEIKRTVAAPSVFIFPPSDEQLKSGTASVVCLLNNFYPREAKVQWKVDNALQSGNSQESVTEQDSKDSTYSLSSTLTLSKADYEKHKVYACEVTHQGLSSPVTKSFNRGECESKYGPPCPPCPAPEAAGGPSVFLFPPKPKDTLMISRTPEVTCVVVDVSQEDPEVQFNWYVDGVEVHNAKTKPREEQFNSTYRVVSVLTVLHQDWLNGKEYKCKVSNKGLPSSIEKTISKAKGQPREPQVYTLPPCQEEMTKNQVSLWCLVKGFYPSDIAVEWESNGQPENNYKTTPPVLDSDGSFFLYSRLTVDKSRWQEGNVFSCSVMHEALHNHYTQKSLSLSL
heavy: EVKLLESGGGLVQPKGSLKLSCAASGFTFNTYAMNWVRQAPGKGLEWVARIRSKYNNYATYYADSVKDRFTISRDDSQSILYLQMNNLKTEDTAMYYCVRHGNFGNSYVSWFAYWGQGTLVTVSSASTKGPSVFPLAPCSRSTSESTAALGCLVKDYFPEPVTVSWNSGALTSGVHTFPAVLQSSGLYSLSSVVTVPSSSLGTKTYTCNVDHKPSNTKVDKRVESKYGPPCPPCPAPEAAGGPSVFLFPPKPKDTLMISRTPEVTCVVVDVSQEDPEVQFNWYVDGVEVHNAKTKPREEQFNSTYRVVSVLTVLHQDWLNGKEYKCKVSNKGLPSSIEKTISKAKGQPREPQVCTLPPSQEEMTKNQVSLSCAVKGFYPSDIAVEWESNGQPENNYKTTPPVLDSDGSFFLVSRLTVDKSRWQEGNVFSCSVMHEALHNRFTQKSLSLSLGGGGSGGGGSEVQLVESGGGFVQAGESLTLSCTSSTLTFTPYRMAWYRQAPGKQRDLVADISSGDGRTTNYADFAKGRFTISRDNIKNTVFLRMTNLKPEDTAVYYCNTFVSFVGIARSWGQGTQVTVSS
notes: two-chain format: VL-CL fused to knob Fc

molecular target: T1, human CD3ε/δ (ACRO systems, CDD-H52W1) (human, UniProt P07766 23-126; P04234 22-105); test: serum-stability ELISA, Day 5 vs Day 0
T1 construct: bought recombinant heterodimer; also called human CD3 epsilon/delta; Human CD3ε/CD3δ
Description: (§1) The samples to be tested were centrifuged at 4° C. at 12000 rpm for 30 minutes to remove the precipitate. 200 μl of each sample to be tested (0.5 mg/ml) was collected in a 1.5 ml Eppendorf tube. An equal volume of human serum (GEMINI, H2OYOOK) was added, mixed thoroughly, and the mixture was incubated in a 37° C. constant temperature CO₂ incubator. For a total of 10 days, 40 μl samples was aspirated every day and stored at −20° C.
(§2) Enzyme-linked immunosorbent assay (ELISA) was used to test the bispecific antibodies' binding to human CEA and human CD3 epsilon/delta antigen. The steps are as follows: the antigen human CD3ε/δ (ACRO systems, CDD-H52W1) and the recombinant tumor antigen human CEA (CEACAM-5/CD66e, ACRO systems, CE5-H5226) were diluted to 1 μg/ml with PBS, and then added to the 96-well plate at 100 μl per well. The wells were coated overnight at 4° C. After washing 3 times with 0.05% PBST, 200 μl 5% skimmed milk powder was added to each well and incubated at 37° C. for 2 h. After washing 3 times with 0.05% PBST, 100 μl primary antibody sample (10 μg/ml) was added to each well, and incubated at 37° C. for 2 h. After washing 3 times with 0.05% PBST, 100 μl (1:6000) diluted secondary antibody goat anti-human Fc-HRP (sigma, A2170) was added to each well, incubated at room temperature for 1 h. After washing 8 times with 0.05% PBST, 50 μl TMB color developing solution was added to each well, and incubated at room temperature for 10-15 min. 50 μl 1 mM HCl was added to each well to stop the color development. 450 nm Absorbance (OD) was read.
(§3) The binding of antibodies to antigen was calculated according to the following formula: Binding (%)=[(ODdayn−ODb)/(ODday0−ODb)]×100%. ODdayn: experimental well (the protein was stored in the serum for n days); ODday0: control well (the protein was not stored in the serum); ODb: blank well (no primary antibody added).

First: B1
Second: B2
The Binding % of the first is higher: 117% for the first, 102% for the second.

First: B3
Second: B4
The Binding % of the first is lower: 100% for the first, 108% for the second.

B5 gave a Binding % of 97.3%.

molecular target: T1, human CD3ε/δ (ACRO systems, CDD-H52W1); test: serum-stability ELISA, Day 9 vs Day 0
Description: as §1, §2, §3

Going from B1 to B2, the Binding % falls from 105% to 95.6%.

Compared with B3, B4 is higher in Binding %: 98.8% for the first, 108% for the second.

B5 showed a Binding % of 101%.

molecular target: T1, human CD3ε/δ (ACRO systems, CDD-H52W1); test: serum-stability ELISA, Day 1 vs Day 0
Description: as §1, §2, §3

First: B1
Second: B2
The Binding % of the first is higher: 96.5% for the first, 95.1% for the second.

First: B3
Second: B4
The Binding % of the first is lower: 95.7% for the first, 102% for the second.

Work on B5 yielded a Binding % of 105%.

molecular target: T1, human CD3ε/δ (ACRO systems, CDD-H52W1); test: serum-stability ELISA, Day 2 vs Day 0
Description: as §1, §2, §3

Going from B1 to B2, the Binding % falls from 99.3% to 95.1%.

Compared with B3, B4 is higher in Binding %: 96.1% for the first, 103% for the second.

In the case of B5, the Binding % is reported as 102%.

molecular target: T1, human CD3ε/δ (ACRO systems, CDD-H52W1); test: serum-stability ELISA, Day 6 vs Day 0
Description: as §1, §2, §3

Compared with B1, B2 is lower in Binding %: 100% for the first, 99.3% for the second.

Compared with B3, B4 is higher in Binding %: 97.4% for the first, 105% for the second.

B5 was tested, and the Binding % was 101%.

molecular target: T1, human CD3ε/δ (ACRO systems, CDD-H52W1); test: serum-stability ELISA, Day 10 vs Day 0
Description: as §1, §2, §3

Compared with B1, B2 is lower in Binding %: 105% for the first, 91.6% for the second.

Compared with B3, B4 is higher in Binding %: 95.7% for the first, 107% for the second.

In the case of B5, the Binding % is reported as 101%.

molecular target: T1, human CD3ε/δ (ACRO systems, CDD-H52W1); test: serum-stability ELISA, Day 0 (reference)

B1 and B2 are the same in Binding %: 100% for the first, 100% for the second.

B3 and B4 are the same in Binding %: 100% for the first, 100% for the second.

With B5 the Binding % was 100%.

molecular target: T1, human CD3ε/δ (ACRO systems, CDD-H52W1); test: serum-stability ELISA, Day 7 vs Day 0
Description: as §1, §2, §3

First: B1
Second: B2
The Binding % of the first is higher: 105% for the first, 100% for the second.

First: B3
Second: B4
The Binding % of the first is lower: 95.9% for the first, 109% for the second.

B5 gave a Binding % of 102%.
